What was measured:
[1] = target: 重组ESAT6蛋白 (Mycobacterium tuberculosis, UniProt P9WNK7 1-95); experiment: Western blotting
[2] = target: T1, H37Rv中ESAT6抗原 (Mycobacterium tuberculosis H37Rv, UniProt P9WNK7 2-95); experiment: Western blotting
T1 construct: also called H37Rv中的ESAT6抗原
T1 sequence (P9WNK7 2-95 limits assumed): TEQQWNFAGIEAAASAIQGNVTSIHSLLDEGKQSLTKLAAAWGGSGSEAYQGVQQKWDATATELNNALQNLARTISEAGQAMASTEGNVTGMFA

Sequence of 重组ESAT6蛋白 (P9WNK7 whole entry): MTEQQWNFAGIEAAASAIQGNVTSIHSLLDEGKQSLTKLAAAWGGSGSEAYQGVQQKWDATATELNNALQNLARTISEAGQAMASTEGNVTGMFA

B1: 单克隆抗体MAb 8G4 (抗ESAT6单克隆抗体, 杂交瘤细胞株8G4, CCTCC NO:C2019287) (antibody, V domains shown)
VH: QIQLVQSGPELKRPGETVKISCKASGYTFTNYGMNWVKQAPGKGLKWMGWINTYNGVPTYTDDFKGRFAFSLETSARTAYLQIKNLKNEDMATYFCAIGGNIPPAYWGQGTLVTVSA
VL: NIMMTQSPSSLAVSAREKVTMICKSSHSVLKSSNQKNYLAWYQQKPGQSPKLLIYWASTRNSGVPDRFTGSGSGTNFTLTITSVQTEDLAVYYCHQYLSSLTFGGGTKLELK
notes: also called 单克隆抗体8G4; ESAT6单克隆抗体8G4
binding result [1]: binds
binding result [2]: binds

From patent CN111378628A (UNIV YANGZHOU, dated 2020)
